The target of one experiment is T1, Cyno TIGIT-Fc (cynomolgus, UniProt A0A7N9I9V4 89-209).
T1 construct: not shown: Fc part
In words: ForteBio BLI, Fab KD, monovalent.

A further experiment has as its target T2, Human TIGIT-His (human, UniProt Q495A1 22-141, biotinylated in the ForteBio Fab assay).
T2 construct: bought (Creative Biomart); also called Biotinylated Human TIGIT HIS; TIGIT-His monomer; not shown: His tag
T2 sequence (looked up): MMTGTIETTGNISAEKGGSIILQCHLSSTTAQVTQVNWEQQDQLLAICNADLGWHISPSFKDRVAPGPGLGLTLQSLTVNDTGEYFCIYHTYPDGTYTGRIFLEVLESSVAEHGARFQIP
Put plainly: ForteBio BLI, Fab KD, monovalent. A general note: In BLI a coated tip is dipped into the sample, and binding shifts an interference pattern.

Experiment [1] deals with T3, human TIGIT expressed on cells (human, UniProt Q495A1 22-244).
T3 construct: whole, on cells; on Jurkat E6.1 cells transduced with human TIGIT, on Promega TIGIT Effector cells or on human primary T cells; the assay field says which; also called hTIGIT; Jurkat-hTIGIT
T3 sequence (looked up): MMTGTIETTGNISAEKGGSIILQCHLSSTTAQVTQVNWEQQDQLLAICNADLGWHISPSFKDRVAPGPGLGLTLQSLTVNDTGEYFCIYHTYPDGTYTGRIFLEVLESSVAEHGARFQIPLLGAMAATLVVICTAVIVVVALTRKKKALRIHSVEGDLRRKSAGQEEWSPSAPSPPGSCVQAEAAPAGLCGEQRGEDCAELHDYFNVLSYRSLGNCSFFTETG
In words: flow cytometry, 100 nM Ab, Jurkat-hTIGIT vs untransfected. The procedure:
(§1) Antibodies were incubated with the cells for 20 min at 4° C. in FACS buffer. […] Geometric mean fluorecence intensity was analysed using LSR BD Fortessa. Cell binding was recorded as the median florescence intensity of PE on the transfected line compared to the un-transfected line for each antibody (Table 3).
(Flow cytometry measures light scatter and fluorescence of single cells or particles in a stream.)

The target of experiment [2] is T4, mouse TIGIT expressed on cells (mouse, UniProt P86176 29-249).
T4 construct: whole, on cells; on Jurkat cells engineered to express mouse TIGIT; also called mTIGIT; Jurkat-mTIGIT
T4 sequence (looked up): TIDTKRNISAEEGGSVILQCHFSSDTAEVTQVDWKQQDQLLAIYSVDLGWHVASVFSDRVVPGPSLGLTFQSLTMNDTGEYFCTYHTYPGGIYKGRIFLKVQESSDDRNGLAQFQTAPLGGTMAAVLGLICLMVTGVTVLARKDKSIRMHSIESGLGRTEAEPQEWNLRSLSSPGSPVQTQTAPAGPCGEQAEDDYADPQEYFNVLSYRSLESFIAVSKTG
In words: flow cytometry, 100 nM Ab, Jurkat-mTIGIT vs untransfected. On the procedure:
as §1

Experiment [3] deals with T3, human TIGIT expressed on cells. In words: cell-based or functional assay.
In the next experiment the target is T5, Human TIGIT-Fc (human, UniProt Q495A1 22-141).
T5 construct: bought (Creative Biomart); also called TIGIT-Fc antigen; TIGIT-Fc fusion antigen; not shown: Fc part
T5 sequence (looked up): T2 sequence (looked up)
Put plainly: ForteBio BLI, IgG KD, avid. On the procedure: Briefly, ForteBio affinity measurements were performed by loading IgGs on-line onto AHQ sensors. Sensors were equilibrated off-line in assay buffer for 30 min and then monitored on-line for 60 seconds for baseline establishment. Sensors with loaded IgGs were exposed to 100 nM antigen (human TIGIT-Fc, human TIGIT-His or cyno TIGIT-Fc) for 5 minutes, afterwards they were transferred to assay buffer for 5 min for off-rate measurement. Kinetics were analyzed using the 1:1 binding model.

Experiment [4] has as its target T3, human TIGIT expressed on cells. Put plainly: cell-based or functional assay. The source holds these as a separate data set.
A further experiment addresses T6, Mouse TIGIT-Fc (mouse, UniProt P86176 29-148, limits assumed).
T6 construct: not shown: Fc part
T6 sequence (looked up): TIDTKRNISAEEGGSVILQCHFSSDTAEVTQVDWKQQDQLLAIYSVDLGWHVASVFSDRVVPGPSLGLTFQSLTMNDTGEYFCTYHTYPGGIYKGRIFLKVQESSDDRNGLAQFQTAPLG
Put plainly: ForteBio BLI, Fab KD, monovalent.

Changes are numbered by the printed parent chain.

We go through 15 molecules from patent US20200407445A1 (ITEOS THERAPEUTICS, published 2020).

T1 sequence (A0A7N9I9V4 entry or part of it): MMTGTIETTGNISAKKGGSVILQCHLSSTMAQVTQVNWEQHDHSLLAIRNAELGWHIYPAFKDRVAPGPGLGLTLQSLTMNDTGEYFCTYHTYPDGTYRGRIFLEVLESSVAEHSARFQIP

B1: Fab of anti-TIGIT clone 31288 (Fab, V domains shown)
VH: QLQLQESGPGLVKPSETLSLTCTVSGGSISSGSYYLAWIRQPPGKGLEWIGSIFRSGSTYYNPSLESRVTISVDTSKNQFSLKLSSVTAADTAVYYCAIEGANFKDFGYVAFDIWGQGTTVTVSS
VL: EIVMTQSPATLSVSPGERATLSCRASQSVSSNLAWYQQKPGQAPRLLIYGASTRATGIPARFSGSGSGTEFTLTISSLQSEDFAVYYCQQSPPWPRTFGGGTKVEIK
notes: Fab
A word on the Kd: it is the concentration at which binding is half-saturated. Lower therefore signals a tighter complex. On to B1, for which the figures for the Kd with Cyno TIGIT-Fc and with Human TIGIT-His were 25.1 nM and 2.09 nM, respectively.

B2: Fab of anti-TIGIT clone 26486 (Fab, V domains shown)
VH: QVQLQESGPGLVKPSETLSLTCAVSGYSISSGYYWAWIRQPPGKGLEWIGSIYHSGSTYYNPSLKSRVTISVDTSKNQFSLKLSSVTAADTAVYYCAIEGANYYDFGYVAFDIWGQGTMVTVSS
VL: B1 VL
For B2, the binding result in the experiment with Cyno TIGIT-Fc is listed as “no binding”. Moreover, the dissociation constant (Kd) with Human TIGIT-His came to 21.9 nM.

B3: anti-TIGIT antibody clone 26486 (IgG) (antibody, V domains shown)
VH: B2 VH
VL: B1 VL
notes: parent clone
As to B3, the “FON (Fold Over Negative)” value in experiment [1] amounted to 143 fold; in experiment [2], 199 fold. Moreover, in experiment [3], the “Induction over Isotype control (fold change), luciferase, Jurkat-hTIGIT + CHO-TCR-CD155, 133 nM” value came out at 1.9 fold. The dissociation constant Kd with Human TIGIT-Fc is 0.589 nM.

B4: anti-TIGIT antibody clone 32931 (IgG) (antibody, V domains shown)
VH: B1 VH
VL: B1 VL with Q27K, G50F, S91T, P92S
notes: human IgG; light chain optimised from 31288
For B4, the “EC50 of Jurkat-hTIGIT cell activation (luciferase), FIG. 12B” value in experiment [4] amounted to 3.2 nM. For the same molecule, the “FON (Fold Over Negative)” value in experiment [1] was 741 fold.

B5: Fab of anti-TIGIT clone 32931 (Fab, V domains shown)
VH: B1 VH
VL: B1 VL with Q27K, G50F, S91T, P92S
notes: Fab
For the molecule B5, the Kd with Cyno TIGIT-Fc came to 1.97 nM; with Human TIGIT-His, 1.18 nM.

B6: Fab of anti-TIGIT clone 29494 (Fab, V domains shown)
VH: B1 VH with L2V, T120M
VL: B1 VL
Regarding B6, the Kd came to 18.6 nM in the experiment with Cyno TIGIT-Fc, 1.66 nM in the experiment with Human TIGIT-His and 53.6 nM in the experiment with Mouse TIGIT-Fc.

B7: Fab of anti-TIGIT clone 32919 (Fab, V domains shown)
VH: B1 VH
VL: EIVLTQSPATLSLSPGERATLSCRASQSVSSYLAWYQQKPGQAPRLLIYDASNRATGIPARFSGSGSGTDFTLTISSLEPEDFAVYYCQQENPRPRTFGGGTKVEIK
notes: Fab
For the molecule B7, the Kd stood at 6.57 nM with Cyno TIGIT-Fc and 1.42 nM in the experiment with Human TIGIT-His.

B8: Fab of anti-TIGIT clone 29499 (Fab, V domains shown)
VH: B1 VH with G32S, S33R, L36W, F54G, R55T, E66K, A90T, K105R, T120M
VL: B1 VL
As for B8, the dissociation constant (Kd) in the experiment with Cyno TIGIT-Fc was 14.5 nM; with Human TIGIT-His, 1.66 nM; with Mouse TIGIT-Fc, 25.5 nM.

B9: anti-TIGIT antibody clone 26521 (IgG) (antibody, V domains shown)
VH: QVQLVQSGAEVKKPGSSVKVSCKASGGTFSSYAISWVRQAPGQGLEWMGGIIPIFGTANYAQKFQGRVTITADESTSTAYMELSSLRSEDTAVYYCARLHLGSSAYYGMDVWGQGTTVTVSS
VL: DIQMTQSPSSLSASVGDRVTITCRASQSISSYLNWYQQKPGKAPKLLIYAASSLQSGVPSRFSGSGSGTDFTLTISSLQPEDFATYYCQQRYVFPPTFGGGTKVEIK
notes: parent clone
For the molecule B9, the “FON (Fold Over Negative)” value in experiment [1] came to 146 fold; in experiment [2] it was 218 fold. Moreover, in experiment [3], the “Induction over Isotype control (fold change), luciferase, Jurkat-hTIGIT + CHO-TCR-CD155, 133 nM” value was 2.66 fold. This molecule also displayed a Kd with Human TIGIT-Fc of 0.541 nM.

B10: Fab of anti-TIGIT clone 26521 (Fab, V domains shown)
VH: B9 VH
VL: B9 VL
On to B10, for which the Kd with Cyno TIGIT-Fc came out at 149 nM; in the experiment with Human TIGIT-His, 9.87 nM.

B11: anti-TIGIT antibody clone 26518 (IgG) (antibody, V domains shown)
VH: EVQLVESGGGLVQPGGSLRLSCAASGFTFSSYGMSWVRQAPGKGLEWVANIKQDGSEKYYVDSVKGRFTISRDNAKNSLYLQMNSLRAEDTAVYYCARVSYYYDSSKLRWAEYFQHWGQGTLVTVSS
VL: B7 VL with N53K, E91V, N92H, P93N, R94F, R96L
notes: parent clone
For the molecule B11, the “FON (Fold Over Negative)” value in experiment [1] worked out at 154 fold; in experiment [2], 233 fold. In experiment [3], the “Induction over Isotype control (fold change), luciferase, Jurkat-hTIGIT + CHO-TCR-CD155, 133 nM” value is 2.89 fold. This molecule also showed a Kd with Human TIGIT-Fc of 0.63 nM.

B12: anti-TIGIT antibody clone 29478 (IgG) (antibody, V domains shown)
VH: EVQLVESGGGVVQPGRSLRLSCAASGFTFESYGMVWVRQAPGKGLEWVASILYDGSNRYYADSVKGRFTVSRDNSKNTLYLQMNSLRAEDTAVYYCARVSYYYDSVELRWAEYFQHWGQGTLVTVSS
VL: B7 VL with N53K, E91V, N92H, P93N, R94F, R96L
On to B12, for which the “FON (Fold Over Negative)” value in experiment [1] was 182 fold; in experiment [2], 500 fold. In experiment [3], the “Induction over Isotype control (fold change), luciferase, Jurkat-hTIGIT + CHO-TCR-CD155, 133 nM” value is 3.57 fold. The molecule further returned a Kd in the experiment with Human TIGIT-Fc of 0.527 nM.

B13: anti-TIGIT antibody clone 32919 (IgG) (antibody, V domains shown)
VH: B1 VH
VL: B7 VL
notes: as for B4
In the case of B13, the “EC50 of Jurkat-hTIGIT cell activation (luciferase), FIG. 12B” value in experiment [4] worked out at 2.7 nM. Further, the “FON (Fold Over Negative)” value in experiment [1] came out at 680 fold.

B14: Fab of anti-TIGIT clone 26518 (Fab, V domains shown)
VH: B11 VH
VL: B7 VL with N53K, E91V, N92H, P93N, R94F, R96L
In the case of B14, the results for the Kd in the experiment with Cyno TIGIT-Fc and in the experiment with Human TIGIT-His were 4.47 nM and 1.24 nM, respectively.

B15: anti-TIGIT antibody clone 26432 (IgG) (antibody, V domains shown)
VH: QVQLVQSGAEVKKPGSSVKVSCKASGGTFSSYAISWVRQAPGQGLEWMGGIIPIFGTANYAQKFQGRVTITADESTSTAYMELSSLRSEDTAVYYCAREAQSYRVPFDIWGQGTMVTVSS
VL: EIVMTQSPATLSVSPGERATLSCRASQSVSSNLAWYQQKPGQAPRLLIYGASTRATGIPARFSGSGSGTEFTLTISSLQSEDFAVYYCQQYAIWPPFTFGGGTKVEIK
notes: also called parental clone 26432
The molecule B15 registered a dissociation constant Kd with Human TIGIT-Fc of 4.62 nM.
